Tests used:
[1] = biological target: BtuC2D2 (E. coli vitamin B12 ABC transporter, core transporter: ATPase + permease) (E. coli) (UniProt P06609)
[2] = biological target: BtuC2D2 (E. coli vitamin B12 ABC transporter, core transporter: ATPase + permease) (E. coli) (UniProt P06609); experiment: SPR; His-BtuC2D2 that had worked (100 uM ATP, 1 mM MgCl2) for 7 hours, nucleotides removed, immobilised on a Ni-NTA chip; apo FLAG-BtuF injected at 0.1-2 uM; 25 °C, 50 mM Tris-HCl pH 7.5, 150 mM NaCl, 0.1% LDAO
[3] = biological target: BtuC2D2 (E. coli vitamin B12 ABC transporter, core transporter: ATPase + permease) (E. coli) (UniProt P06609); experiment: SPR; fresh (naive) His-BtuC2D2 (1500-2000 RU) immobilised on a Ni-NTA chip, apo FLAG-BtuF injected at 0.1-2 uM; Biacore T200, 25 °C, 50 mM Tris-HCl pH 7.5, 150 mM NaCl, 0.1% LDAO, 15 uL/min

Sequence of UniProt P06609 (P06609 whole entry, chain 1 of 2): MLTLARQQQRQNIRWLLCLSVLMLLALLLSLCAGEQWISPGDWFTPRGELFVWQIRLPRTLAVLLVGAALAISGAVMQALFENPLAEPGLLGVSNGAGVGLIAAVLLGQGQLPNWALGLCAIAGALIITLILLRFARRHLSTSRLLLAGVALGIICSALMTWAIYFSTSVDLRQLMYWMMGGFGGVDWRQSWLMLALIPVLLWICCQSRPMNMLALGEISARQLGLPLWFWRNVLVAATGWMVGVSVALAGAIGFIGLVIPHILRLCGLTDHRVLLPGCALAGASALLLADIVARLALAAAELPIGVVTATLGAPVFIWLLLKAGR
Sequence of UniProt P06609 (P06611 whole entry, chain 2 of 2, further chain): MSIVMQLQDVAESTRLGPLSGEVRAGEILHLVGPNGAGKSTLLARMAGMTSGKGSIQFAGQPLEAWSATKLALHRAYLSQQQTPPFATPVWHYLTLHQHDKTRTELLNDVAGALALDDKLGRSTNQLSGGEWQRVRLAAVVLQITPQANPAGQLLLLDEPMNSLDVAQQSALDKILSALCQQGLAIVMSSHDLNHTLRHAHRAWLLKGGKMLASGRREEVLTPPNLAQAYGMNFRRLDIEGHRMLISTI

B1: BtuF, substrate binding protein (SBP) of the vitamin B12 transport system, FLAG-tagged (natural protein)
chain: APRVITLSPANTELAFAAGITPVGVSSYSDYPPQAQKIEQVSTWQGMNLERIVALKPDLVIAWRGGNAERQVDQLASLGIKVMWVDATSIEQIANALRQLAPWSPQPDKAEQAAQSLLDQYAQLKAQYADKPKKRVFLQFGINPPFTSGKESIQNQVLEVCGGENIFKDSRVPWPQVSREQVLARSPQAIVITGGPDQIPKIKQYWGEQLKIPVIPLTSDWFERASPRIILAAQQLCNALSQVD
uptake rate of 57Co vitamin B12 into proteoliposomes, BtuC2D2 that had worked 7 hours against its fresh precursor [1]: 60% | Kd [2]: 0.037 nM | improvement of BtuF binding of worked over fresh BtuC2D2 [2]: 35 to 60% | koff [2]: 1.1e-05 s⁻¹ | kon [2]: 290000 M⁻¹ s⁻¹ | Kd [3]: 0.036 nM | koff [3]: 1.2e-05 s⁻¹ | kon [3]: 280000 M⁻¹ s⁻¹
